The values that follow come from PMC3267046.

Substrate in the data set: O=[N+]([O-])c1cn2c(n1)OC[C@@H](OCc1ccc(OC(F)(F)F)cc1)C2
Description: purified protein. It counts as biochemical, Nocardia farcinica.

B1: (Nocardia farcinica IFM 10152) (protein)
chain: MRMSSTGEYVPSPSEWIGNQVAQYEASDGAEAGEFDGRPLVILTTVGRKTGALRKTPVMRVEHDGRYAVVASQGGAPTHPAWYFNLVADPRAQLRDKDAVLSVVARELAGPERAEWWERAVRAYPTYQEYQDNTRRLIPVLLLEPGR
For B1, the Michaelis-Menten constant (Km) worked out at 21.9 µM, the kcat was determined as 0.33 ± 0.08 s⁻¹ and the kcat/Km was found to be 16000 ± 2000 M⁻¹ s⁻¹.

Usually Km stands for the substrate concentration at which the rate is half of its maximum. A word on the kcat: it is the number of substrate molecules converted per active site and unit of time at saturation. Usually kcat/Km stands for the second-order rate constant that governs catalysis at low substrate concentration.
